Experiments:
Test in all cases: ELISA: Fc-His proteins (1 nM) captured on anti-6-His antibody, antibody A 10 µg/mL with human IgG 100 µg/mL, HRP anti-mouse IgG, OD450 as % of mouse EphA4-Fc-His
[1] = target: T1, mouse EphA1 extracellular region-Fc-His protein (mouse; human, UniProt Q60750 27-548)
T1 construct: extracellular domain; not shown: Fc region of human IgG1; histidine tag
T1 sequence (looked up): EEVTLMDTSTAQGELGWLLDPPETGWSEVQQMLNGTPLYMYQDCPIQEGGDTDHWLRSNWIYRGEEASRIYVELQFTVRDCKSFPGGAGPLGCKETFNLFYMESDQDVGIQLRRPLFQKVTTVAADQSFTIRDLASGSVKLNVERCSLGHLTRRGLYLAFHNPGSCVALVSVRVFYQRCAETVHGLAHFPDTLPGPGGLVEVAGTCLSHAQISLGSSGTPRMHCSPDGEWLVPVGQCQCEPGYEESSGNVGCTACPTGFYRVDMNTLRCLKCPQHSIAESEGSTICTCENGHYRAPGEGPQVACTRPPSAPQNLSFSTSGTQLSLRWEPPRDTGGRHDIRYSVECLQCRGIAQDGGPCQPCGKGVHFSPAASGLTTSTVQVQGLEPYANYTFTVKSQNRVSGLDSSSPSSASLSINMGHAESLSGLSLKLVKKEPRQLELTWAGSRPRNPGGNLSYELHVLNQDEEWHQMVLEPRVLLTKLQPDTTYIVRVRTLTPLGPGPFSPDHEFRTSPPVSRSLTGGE
Protocol: (§1) Rabbit anti-6-His antibodies (Bethyl Laboratories) were coated onto the wells of a 96-well plate (Nunc). After incubating at 4° C. overnight, the wells were blocked at room temperature for 1 hour by 1% Block Ace (DS Pharma Biomedical). After washing 3 times with 0.05% Tween 20/PBS (Thermo […]), each Eph receptor of mouse extracellular region-Fc-His protein (final concentration 1 nM) was seeded into each well, and incubated at room temperature for 1 hour. After washing 3 times, human IgG solution (100 μg/mL, Sigma) and antibody A (10 μg/mL) were supplemented to the wells, and incubated at room temperature for 1 hour. Horseradish peroxidase-labeled donkey anti-mouse IgG antibody (Jackson ImmunoResearch Laboratories) was added, and incubated at room temperature for 1 hour. After washing 3 times, TMBZ (3,3′,5,5′-tetramethylbenzidine, Sigma) solution was added to the wells, and upon confirmation of modest coloring, an equal amount of quenching solution (1 N H₂SO₄, Wako Pure Chemicals) was added to the wells, and absorbance at 450 nm was read by a microplate reader (PerkinElmer).

[2] = target: T2, mouse EphB6 extracellular region-Fc-His protein (mouse; human, UniProt O08644 33-591)
T2 construct: extracellular domain; not shown: Fc region of human IgG1; histidine tag
T2 sequence (looked up): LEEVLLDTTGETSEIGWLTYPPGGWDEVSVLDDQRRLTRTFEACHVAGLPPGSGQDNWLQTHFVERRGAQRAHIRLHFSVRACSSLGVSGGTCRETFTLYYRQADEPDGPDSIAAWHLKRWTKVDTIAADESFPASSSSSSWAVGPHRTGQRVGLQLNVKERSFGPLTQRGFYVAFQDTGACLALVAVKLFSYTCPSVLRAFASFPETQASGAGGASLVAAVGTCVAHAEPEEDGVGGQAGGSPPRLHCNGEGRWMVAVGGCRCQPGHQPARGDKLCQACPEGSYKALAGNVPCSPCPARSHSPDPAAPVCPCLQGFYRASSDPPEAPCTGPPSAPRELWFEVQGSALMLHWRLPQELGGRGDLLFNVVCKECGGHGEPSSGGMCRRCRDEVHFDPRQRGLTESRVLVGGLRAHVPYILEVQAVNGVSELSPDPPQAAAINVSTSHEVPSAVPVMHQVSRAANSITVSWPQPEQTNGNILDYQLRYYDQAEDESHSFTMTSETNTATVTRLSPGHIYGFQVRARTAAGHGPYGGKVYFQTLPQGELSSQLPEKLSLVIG
Protocol: as §1

[3] = target: T3, mouse EphA2 extracellular region-Fc-His protein (mouse, UniProt Q03145 26-538)
T3 construct: extracellular domain; Cloned into a pcDNA 3.1 vector separately from the other mouse Eph receptors; not shown: Fc; histidine tag
Protocol: as §1

[4] = target: T4, mouse EphA3 extracellular region-Fc-His protein (mouse; human, UniProt P29319 21-540)
T4 construct: extracellular domain; not shown: Fc region of human IgG1; histidine tag
T4 sequence (looked up): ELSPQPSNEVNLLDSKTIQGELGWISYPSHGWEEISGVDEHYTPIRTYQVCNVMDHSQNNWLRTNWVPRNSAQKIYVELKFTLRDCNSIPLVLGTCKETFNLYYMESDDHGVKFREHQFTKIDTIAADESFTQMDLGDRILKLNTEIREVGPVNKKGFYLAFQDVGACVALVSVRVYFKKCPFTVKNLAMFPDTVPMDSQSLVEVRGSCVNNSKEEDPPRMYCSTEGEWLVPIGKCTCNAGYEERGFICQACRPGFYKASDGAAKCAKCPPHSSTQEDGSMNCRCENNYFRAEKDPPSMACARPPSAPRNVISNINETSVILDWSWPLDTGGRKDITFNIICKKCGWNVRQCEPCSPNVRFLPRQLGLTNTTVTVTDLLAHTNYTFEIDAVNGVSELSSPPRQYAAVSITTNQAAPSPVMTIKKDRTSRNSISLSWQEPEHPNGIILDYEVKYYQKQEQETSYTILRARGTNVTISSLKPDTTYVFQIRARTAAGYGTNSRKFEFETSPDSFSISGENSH
Protocol: as §1

Measured: binding result

T3 sequence (Q03145 26-538): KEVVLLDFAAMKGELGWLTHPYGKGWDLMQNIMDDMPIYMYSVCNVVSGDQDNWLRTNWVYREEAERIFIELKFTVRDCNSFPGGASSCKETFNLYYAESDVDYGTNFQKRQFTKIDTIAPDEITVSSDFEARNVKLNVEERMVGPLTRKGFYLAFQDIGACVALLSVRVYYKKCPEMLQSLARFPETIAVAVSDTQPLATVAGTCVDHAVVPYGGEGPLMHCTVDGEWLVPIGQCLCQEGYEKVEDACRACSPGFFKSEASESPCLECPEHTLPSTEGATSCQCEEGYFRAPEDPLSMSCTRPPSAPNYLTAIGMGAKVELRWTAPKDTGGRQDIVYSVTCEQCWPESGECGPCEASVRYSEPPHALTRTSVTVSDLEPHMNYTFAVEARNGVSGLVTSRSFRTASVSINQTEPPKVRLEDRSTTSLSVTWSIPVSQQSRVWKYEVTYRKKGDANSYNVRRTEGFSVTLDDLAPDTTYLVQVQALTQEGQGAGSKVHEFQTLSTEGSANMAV

B1: mouse anti-EphA4 monoclonal antibody (antibody A) (antibody, mouse IgG1, kappa, V domains shown)
VH: QVQLKQSGPSLVQPSQSLSITCTVSGFSLTRYGVHWVRQSPGKGLEWLGVIWRGGSTDYNAAFMSRLSITKDNSKSQVFFKMNSLQADDTAIYYCAKESLFGVYYDYGYYSMDYWGQGTSVTVSS
VL: DIQMTQSPSSLSASLGERVSLTCRASQEISGYLSWLQQKPDGTIKRLIYAASTLDSGVPKRFSGSRSGSDYSLTISSLESEDFADYYCLQYASYPLTFGAGTKLELKR
notes: purified from hybridoma supernatant
no binding (tested: 10 µg/mL): all assays above

Source: US20240010735A1 (EISAI R AND D MANAGEMENT, published 2024)
